Measured values: US20080104734A1 (published 2008)

Molecular target: SSPG1d peptide ([…])
Experiment: ELISA

B1: polyhistidine tagged scFv-SSPG1d-peptide (scFv)
scFv: MDIVLTQSPAIMSASPGEKVTMTCSASSSVSYMHWYQQKSSTSPKLWIYDTSKLASGVPGRFSGSGSGNSYSLTISSMEAEDVATYYCFQGSGYPLTFGAGTKLEIKRGAGGSGGGGSGGGGSGGGGSQVQLQQSGAELVRPGSSVKISCKASGYAFSNYWMNWVKQRPGQGLEWIGQIYPGYGDAKYNGKFKGKATLTADISSSTAYMQLSSLTSEDSAVYFCARSSYEANWGQGTLVTVSALEHHHHHH
B1 gave a Kd of 26.7 nM.
